From patent US20150004189A1
Substitutions are numbered along the chain they refer to.

Columns and labels:
[1] = target: T1, HLA DP molecule DPB1*0401 (human); assay: inhibition of radiolabeled peptide binding to purified HLA DP
T1 chain 1: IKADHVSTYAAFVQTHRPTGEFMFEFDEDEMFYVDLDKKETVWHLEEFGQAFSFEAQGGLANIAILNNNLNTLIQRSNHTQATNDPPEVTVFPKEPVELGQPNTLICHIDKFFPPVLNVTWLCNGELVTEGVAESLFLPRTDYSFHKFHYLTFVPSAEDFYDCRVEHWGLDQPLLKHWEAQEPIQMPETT
T1 chain 2: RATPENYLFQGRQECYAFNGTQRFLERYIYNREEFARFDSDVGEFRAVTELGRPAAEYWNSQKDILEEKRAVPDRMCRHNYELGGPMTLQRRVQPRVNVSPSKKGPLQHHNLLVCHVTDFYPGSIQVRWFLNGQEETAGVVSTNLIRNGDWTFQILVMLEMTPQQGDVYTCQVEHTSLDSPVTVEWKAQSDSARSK

[2] = target: T2, HLA DQ molecule DQB1*0402 (human), P01909; assay: inhibition of radiolabeled peptide binding to purified HLA class II
T2 chain 1: not shown
T2 chain 2: not shown

[3] = target: HLA DQ molecule DQB1*0502 (human); assay: as above
[4] = target: HLA DQ molecule DQB1*0503 (human); assay: as above
[5] = target: T3, HLA-DQ molecule DQB1*0501 (human); assay: competition: inhibition of radiolabeled peptide binding to purified HLA
T3 chain 1: not shown
T3 chain 2: not shown

[6] = target: HLA-DR molecules on the donors' cells (locus; alleles not stated); assay: cell-based or functional assay
[7] = target: HLA DQ molecule DQB1*0202 (human); assay: inhibition of radiolabeled peptide binding to purified HLA class II
[8] = target: HLA DQ molecule DQB1*0602 (human); assay: as above
[9] = target: T4, HLA-DR DRB1*0301 (human); assay: as above; settings: remark: other sources report otherwise
T4 chain 1: not shown
T4 chain 2: not shown

[10] = target: T5, HLA DP molecule DPB1*0201 (human); assay: competition vs radiolabeled peptide, purified HLA-DP
T5 chain 1: T1 chain 1
T5 chain 2: T1 chain 2 with A36V, A55D, A56E, K69E

[11] = target: T1, HLA DP molecule DPB1*0401 (human); assay: as above

Binder: KVSDDITYVATATLP (modifications not checked) [Alt a 1 peptide, position 111 (Peptide ID 3324.0013)]
- IC50 [1]: 1.61 µM

Binder: GIFLSVAAGNEAENA (modifications not checked) [Pen ch 13 (271-285) peptide …, Peptide ID 3324.1303]
- IC50 [2]: 0.102 µM
- IC50 [3]: 50 µM
- IC50 [4]: 50 µM

Binder: AAAGLAAAAPLESRQ (modifications not checked) [Alt a 1 peptide, position 11, Peptide ID 3324.0017]
- IC50 [5]: 50 µM

Binder: VADAYITLVTLPKSS (modifications not checked) [Alt a 1 peptide, position 143 (Peptide ID 3324.0016)]
- IC50 [1]: 2.5 µM

Binder: DGVWEIKSDKPLKGPFNFRF (peptide, UniProt P14947 51-70, looked up) [Lol p 2 (51-70) epitope region, Rye Grass]
- Region restriction(s) DR (ELISPOT response inhibited by locus-specific mAb) [6]: 3 donors

Binder: LDLAVNAAVDAGIHF (modifications not checked) [Pen ch 18 (291-305) peptide …, Peptide ID 3324.1331]
- IC50 [7]: 0.361 µM
- IC50 [8]: 0.48 µM

Binder: GSDEKNLALSIKYNKEGDSM (peptide, UniProt Q41183 11-30, looked up) [Dac g 2 (11-30) epitope region, Orchard Grass]
- Region restriction(s) DR (ELISPOT response inhibited by locus-specific mAb) [6]: 1 donors

Binder: IASLFAAAGLAAAAP (modifications not checked) [Alt a 1 peptide, position 6, Peptide ID 3324.0015]
- IC50 [9]: 32.1 µM

Binder: LDLAVNAAVDAGIHF (modifications not checked) [Pen ch 18 peptide, position 291, … (Peptide ID 3324.1331)]
- IC50 [10]: 5.05 µM
- IC50 [11]: 9.18 µM

Binder: ITYVATATLPNYCRA (modifications not checked) [Alt a 1 peptide, position 116 (Peptide ID 3324.0014)]
- IC50 [1]: 2.99 µM
